Test: soluble on expression in E. coli; label from the status in PepcDB or PDB records

| Sequence | soluble on expression in E. coli |
| --- | --- |
| MSLQGQIDIPLDIVGRWQADQSAYELAKTYYWAKVAHLAEHNDQLAQPTYEGAHLADISEINNAPATARRMLVVSSDLFRAQQTAHAFADLMGLDVELDPRLRERSFGEWEGMTREEICEHYADDYHSWRAHTGGETKHGVESRIHTGRRGAEAVRDIVAKHHDETMPTTLLLVGHGSWIVATVAVLLDMDPDDLNNVGAMRNAFWTRMTPHTDPRNADRPTWKLEEFNQGPAIASEGHHHHHH | soluble |
| MSLQIMLCAISNIASGNCSEDCKYCTQSAHVKTDIQKYRRKELSQIVLEAKMAKKNEALGFCLVTAGLGLDDEKLEYVCEAAKAVQKEVPNLLLIACNGMASVEQLKELKKAGIFSYNHNLESSKEFFPQICTTHTWESRFQTNLNAKEAGLMLCCGGIYGMGESEEDRLSFRKSLQELQPFSTPINFFIANENLKLQVPRLSADEALKIVRDTKEALPQSVVMVAGGREVVLRERQYEIFQAGAGAIVIGDYLTTKGEEPSQDIIKLKEMGFTFASECHEGHHHHHH | not soluble |
| MSLQISPETQLFIREHQTDDVRALALQARKYPNVDMPTAITQIAGRQVAAEKIPSWRDTDDIWYPKHLSLEQCSSEVTARYKATLLKGNSLTDLTGGFGIDCAFLAARFKSATYVERQQELCEIAAHNFPILNLNHINVKNEDGVSYLQAMSPVDCIFLDPARRNEHGGKTVAISDCEPDVAELEELLLNKAEQVMVKLSPMLDLSLALKELQHVQEVHIISANNECKELLLILGQASAEEISIHCVNLPTRGAQEEQHFVFTREQEQCSECNYTDTLENYLYEPNASLLKAGAFRSIASAFPVKKLHPNSHLYTSDVLVESFPGRAFHIISQCSLNKKELKESLGDLKKANITVRNFPATVAELRKRIKLSEGGDTYLFASTLNNGQKVLIRCEKAEGHHHHHH | soluble |
| MSLQKLVAIEPVSLVLSAEKALYSFADEVVMYSDIPAGDNEIIARIGDADAVLLSYTSQINRYILERCPNVRYIGMCCSLYSPESANVDIRYANERGITVTGIRDYGDEGVIEYVVSELVRCLHGFGQKPWEGIPREITGLKVGIVGLGKSGGMIADAMKFFGADIAYYARSEKKEAGAKGYRFMPLNELLTWSEVVCCCLNKNTVLLHEAEFKALGNRKILFNTGLSPAWDESSFTRWLEEDNLCFCDTLGALGSTALLTHPHVRCMQVSTGRTRQAFDRLSEKVLANLSEYNGEGHHHHHH | soluble |
| MSLQLLAEIVTVHTKHPFIIARGGQSEYQVVWVRLIDADGAEGWGEASPSKYYGETADTVMVALQRFAPVLAGADAWSIEAIERELEKAMRWNAAARCAVSAALHDLAARRLGVPLWKMWGLDRQATPISSFTIGIAPDAATLRARVREAAHYPLLKIKLGSSWDREVLRIVREEAPKAQLRVDANAAWTAKQALGMLDVLNEVGVDMLEQPLPPQELAGLRFVRERSNIPVVADESCLVASDIPKLEGIVDGVNIKLAKCGSLREALRMIAVARAHGMRVMCGCMIETTLGIAAAAHFSPLLDDADLDGAALLSDDPFDGPGIPDGRVVLGDAPGLGVTRRAGNEGHHHHHH | soluble |
| MSLQNFDFNEALKGIQAGKPITGSDGVLAPLIKQLTEAALNAEIQSHLEQSSTSNRRNGYSKKTVKSAAGSFELETPRDRNGEYEPVLVKKHQTKLTAEIDSRILSLFSHGMSYRDIRHHIAEIYQLEVSEATISSITDELIPQLKAWQSRPLDSVYPFVWLDAIHYKVKDEGRYVSKAIYTLLALNTEGKKELIGLYCSESEGANYWLSVLTDLHNRGVQDILIACVDGLKGFPEAINAIFPNTEVQLCVIHQIRNSIRYVASRDQKAFMRDLKPVYKAVNKESAELALDDLEAVWGDQYPAVIKSWRDKWHLLSAYFKYPEAVRKPIYTTNAVEAVHRQFRKLTKTKGAFPNETSLLKLLYVGMLNASAKWTMPIRNWGQTMMQLSIYFPGRLDSVMREGHHHHHH | soluble |
| MSLQPNTYFLHNILVTGATGFVGSFLCSRLLAEGMSVRGTFLVTENPDSLVKGTEQALIEPIGPATFWGHALAGAGTVIHLAARVHVMRERAADPLKEFRFVNTEGTAHLAREAAKAGVKRFVFMGTIGVNGDNSGDAPYIESSPPYPHNPYSVSKYEAEQLLRQISSETGMEVVIIRAPLVYGPGNPGNFLSLLKAVNGDYGFKTLNFGLKVLPLPLASINNKRSLIYVGNLVDALVTCATHPAAVGQTYLVSDGEDVSTPELIRRTAAALGVPARLFPFPVPLMKLAGKLIDKSAAVNRLTGSLTVDSSKIRRELGWQPPFTMEEGLQETAKWFEKQGEGHHHHHH | soluble |
| MSLQPSQRVVLSHLVHGGWDEIAHSSLRPEIRGFKRTREVARSLLARRLPIYSAVFTGDCLFGNHPLLRPIGIHMQNVQAGNLLVSSTLVDGTVLNQAVCLMVHEDTEHAIGLMLNRPMQAMAGAITIQGTPQETPKIPRWNAEDLDETSEGDSTIDPSSDSIEHPVSGVPSVVISGDQKDQLAQQLLSGKLANGSSLHFGGPLSGPIVAVHSNRELAEAETGEGIFVAAQRENLEALMKSSDLPYRLIIGHLGWTAEQLENEIEEGIWHRIPATSDLLNSDDAMMWPRMIRRATANSVARWLDTTDVPGSAELNEGHHHHHH | soluble |
| MSLQRFKFLMYQVVASDLDGTLLSPDHTLSPYAKETLKLLTARGINFVFATGRHHVDVGQIRDNLEIKSYMITSNGARVHDLDGNLIFAHNLDRDIASDLFGVVNDNPEIITNVYRDDEWFMNRHRPEEMRFFKEAVFNYALYEPGLLEPEGVSKVFFTCDSHEKLLPLEQAINARWGDRVNVSFSTLTCLEVMAGGVSKGHALEAVAKKLGYSLQDCIAFGDGMNDAEMLSMAGKGCIMGSAHQRLKDLHPELEVIGTNAEDAVPHYLRKLYLSEGHHHHHH | soluble |
| MSLQTKQKGLQEVLIAAIKRATNEKTLVSFVKQIDWVDPLLFYAAGKRISFENRCYFADPAQHVIFAGIGSVFTIANSSHKRFQTARDEWEKVKENAFVQRDEYEFGTGPLLFGGFSFDPEKEKTDLWKEFKDTTFSLPAFLLTVKNEKAWLTMNTFVSATDCAETLSNEMISLEEKILGESRCALNGSKLTVISKVEVDPKGWMKAIEKVQDEMKQGNVQKVVLARELKVEMNHSIDSALVLEALRIGQPDCYVFSFDYKGACFLGATPERLIRKEDEKFTSMCLAGSIGHGHSIEESKRNSNALLHDEKNLAEHGYVVNMIRSVLNEHCEYVNIPESPGLLTTKNLIHLYTPVEAKGDASLLTMVEELHPTPALGGTPRLEAMKLIRDVELLDRGLYGAPIGWIDDEGNGEFAVALRCGLLNGEKASLFAGCGIVIDSIPQLEYEETSLKFRPMLGALEELMKEGHHHHHH | soluble |
| MSLRAPRRSNADGLSENVLKAILEPAAAYMAETQKMKEEGNENGGSENTNIDQRNQLLQQASQRGSIGSFLDTTSLSTCSKRSLHSSRLTLSDSKEFYKTVGCRWIRSVRHGDVSTVKKMLEENSELVNYAPTYGPLALHLAAARSDRSIILLLLAKGAEVDSRDAAGYTCLQLAIRRGNQSLAHFLILQGANIELIDPDGRGIIDYDGWSGEDQRSAEKHFYGKIILRPKAHSFVGSPSSISMKSSKSTRTMRPSSTPNDSMISEYESSNLKRNEKQRSSWMSFFKSHTIFGSNSKS | not soluble |
| MSLRFITPEKRTIEELRFPTREAADNAVKKIADGLSFDDLVKAENKTLNDIKKGPFTENELPSYLSSEIFELKQGQISAVINDLQGPVIIRVTDITPAGPIPFEKVEDNIRQTLAQNRAADDIRNSYTEIENARFEGASEGHHHHHH | soluble |
| MSLRHGIQAVFLIEKISKCNSLESLSLLVKERQAVFEAMIESHLPANVIGQVLMMIYDAFTCRLIKLAERNVGLPPCNYAWLAAGSHARGEVHLGSDQDNALVLDDSATESDRIYFRHFAMYICKGLAECGYPLCNGRFMAATPKWNQPLFIWKQLYRKWANNPEYNMLLNLNVFLEVRFISGDRSLFDELNSERERCTKNNPHLIAALVRNLISHRPPLGIFNNLVLENNGHNEKSLNIKKSAIGLLVDIARIYALHKGGGMLSTEERFDFAYDRGLINSTSHQDLIGTYRYVTQLRYSHQLQCLQGGKPVTNAIFPEHFGSFERQHLKDAFRIIRGYQDTLKMKFGSEGHHHHHH | soluble |
| MSLRIADKTVTRAILERHGFTFKKSFGQNFLTDTNILQKIVDTAEIDKGVNVIEIGPGIGALTEFLAENAAEVMAFEIDDRLIPILADTLARFDNVQVVNQDILKADLQTQIQAFKNPDLPIKVVANLPYYITTPILMHLIESKIPFAEFVVMIQKEVADRISAMPNTKAYGSLSIAVQYYMTAKVSFIVPRTVFVPAPNVDSAILKMVRRDQPVVSVQDEDFFFRVSKVAFVHRRKTLWNNLTSHFGKSEDTKAKLEKALEIAKIKPSIRGEALSIPDFASLADALKEVGIEGHHHHHH | soluble |
| MSLRIGIVGVGFSEFRIHEEPFYNVAFLAAKRALEDAGIERGEVDSFILGGYDNLGVGRTISNMYTAPAAGAYLRHEIRVSDDALFALPLAFMKVKSGSEITMLLAFGHSSETPIELVELQSLDPFFHRPFNLSLPVFFAMQSYAYRERYGVKEEKIAEVVVRMREKGAKNPRAYIREKVSVEDVLSSEVVSSPLRRLEMAEWCDGCVAFILAEETVARRLSDSPVWVSGLGWSAENYYFDRSLHDLPFVAKSAEMAFKMSGKERKDVEALEISDLTADYYCMILEALGFAETGRGWEFNGDVNFSGGALCTNAYGSTGAFLLASIVERIRKGEIECGMAQSMSGYAQKSCVAILEGEGHHHHHH | soluble |
| MSLRKEDKAAYRCLKAIKAGEKLTDAPAEDLPDLDLKPLEEMQNIYREHPEALQASVEIAEQCRVDVSLGQTRLPSFPTPDGTSADDYLTDICMEGLRSRFGKPDERYLRRLQYELDVIKRMKFSDYFLIVWDFMKHAHEKGIVTGPGRGSAAGSLVAYVLYITDVDPIKHHLLFERFLNPERVSMPDIDIDFPDTRRDEVIQYVQQKYGAMHVAQIITFGTLAAKAALRDVGRVFGVSPKEADQLAKLIPSRPGMTLDEARQQSPQLDKRLRESSLLQQVYSIARKIEGLPRHASTHAAGVVLSEEPLTDVVPLQEGHEGIYLTQYAMDHLEDLGLLKMDFLGLRNLTLIESITSMIEKEENIKIDLSSISYSDDKTFSLLSKGDTTGIFQLESAGMRSVLKRLKPSGLEDIVAVNALYRPGPMENIPLFIDRKHGRAPVHYPHEDLRSILEDTYGVIVYQEQIMMIASRMAGFSLGEADLLRRAVSKKKKEILDRERSHFVEGCLKKEYSVDTANEVYDLIVKFANYGFNRSHAVAYSMIGCQLAYLKAHYPLYFMCGLLTSEGHHHHHH | not soluble |
| MSLRKFKSILLIDDDETSNFISEVIIKKLGITETISTVKNGVEALNFVSNNCTINCAPTCPQIIFLDLHMPVMDGFDFLKELKKQMPLYTQKFKIFVLSSSNNPADITKTKDFDVEGYIVKPLSQEKISMLLEDVAEGHHHHHH | not soluble |
| MSLRLGIILHGVTGRMGYNQHLVRSVLAIRDQGGIMLKSGGRLEIDPIIVGRNRDKIEQLAKRHDIARWSTDLDAALADPNDQIFFDAGTTLMRAELIGRALDAGKHVYCEKPVSDDLRTAVKLARKARASGLKHGVVQDKLFLPGLQKLALLRDSGFFGKILSVRGEFGYWVFEGDWGVPAQRPSWNYRKKDGGGIILDMLCHWRYVLDNLFGEVKAVSCLGATHISSRIDEQGRAYDCDTDDAAYATFELEGGVIAQINSSWTVRVRRDDLVTFQVDGTHGSAVAGLTKCWTQHRVNTPKPVWNPDQPQTIDFYETWDEVPDTQAFDNGFKAQWEMFLRHVAEDSPWPYGLEAGAKGVQLAELGLKSWAERRWLDVPELEEGHHHHHH | soluble |

Reference: the DeepSol protein solubility set
